Target: biotinylated EpoR (Abbott CHO cell derived ref.#RB69084:4) (UniProt P19235)
Experiment: immunofluorescence microscopy on EpoR-coated sheep red blood cells, MAB307 at 20 ug/ml

Chain of biotinylated EpoR (Abbott CHO cell derived ref.#RB69084:4) (P19235 25-250 limits assumed): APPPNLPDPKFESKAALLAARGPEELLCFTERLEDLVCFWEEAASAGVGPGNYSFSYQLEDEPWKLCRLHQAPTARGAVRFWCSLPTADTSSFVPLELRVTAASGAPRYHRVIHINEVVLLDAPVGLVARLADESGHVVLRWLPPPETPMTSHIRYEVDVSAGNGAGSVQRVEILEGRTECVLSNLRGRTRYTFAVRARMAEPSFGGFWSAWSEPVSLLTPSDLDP

immunofluorescence score (arbitrary scale of 0-4): 4 of 4
Substance: murine anti-EpoR antibody (R&D Systems Cat. #MAB307)
